Source: publication PMC9371974 (Nature Structural & Molecular Biology, 2022)
Changes are numbered by the printed parent chain. Names may count otherwise.

B1:  (antibody, V domains shown)
VH: QVQLQQSGTELVMPGASVKMSCKASGYTFTDYWMHWVKQRPGQGLEWIGSIDPSDSYTSHNEKFKGKATLTVDESSSTAYMQLSSLTSEDSAVYFCSRSGYGYAAMEYWGQGTSVTVSS
VL: DIVLTQSPAILSVSPGERVSFSCRASQNIGTSIHWYQQRTNESPRLIIKYASESISGIPSRFSGSGSGTDFTLSINSVESEDIADYYCQQSNTWPYTFGGGTKLELK
notes: also called holo-Y104A; hcY104A IgG holoantibody
B2: POM1 scFv pomolog lcS91A (scFv, V domains shown)
VH: B1 VH with A104Y
VL: B1 VL with S91A
B3: POM1 scFv pomolog lcS32A (scFv, V domains shown)
VH: B1 VH with A104Y
VL: B1 VL with S32A
B4: POM1 scFv pomolog lcY96A (scFv, V domains shown)
VH: B1 VH with A104Y
VL: B1 VL with Y96A
B5: POM1 scFv pomolog hcD52A (scFv, V domains shown)
VH: B1 VH with D52A, A104Y
VL: B1 VL
B6: POM1 scFv pomolog hcD55A (scFv, V domains shown)
VH: B1 VH with D55A, A104Y
VL: B1 VL
B7: POM1 scFv pomolog hcY57A (scFv, V domains shown)
VH: B1 VH with Y57A, A104Y
VL: B1 VL
B8: POM1 scFv pomolog lcY50A (scFv, V domains shown)
VH: B1 VH with A104Y
VL: B1 VL with Y50A
B9: POM1 scFv pomolog lcW94A (scFv, V domains shown)
VH: B1 VH with A104Y
VL: B1 VL with W94A
B10: POM1 scFv pomolog hcY104A (scFv, V domains shown)
VH: B1 VH
VL: B1 VL
B11: POM1 scFv pomolog hcY101A (scFv, V domains shown)
VH: B1 VH with Y101A, A104Y
VL: B1 VL
B12: pomolog hcY57A (POM1 scFv, heavy chain Y57A) (scFv, V domains shown)
VH: B1 VH with Y57A, A104Y
VL: B1 VL
B13: pomolog lcS32A (POM1 scFv, light chain S32A) (scFv, V domains shown)
VH: B1 VH with A104Y
VL: B1 VL with S32A
B14: pomolog lcY50A (POM1 scFv, light chain Y50A) (scFv, V domains shown)
VH: B1 VH with A104Y
VL: B1 VL with Y50A
B15: pomolog lcW94A (POM1 scFv, light chain W94A) (scFv, V domains shown)
VH: B1 VH with A104Y
VL: B1 VL with W94A
B16: pomolog hcY104A (POM1 scFv, heavy chain Y104A) (scFv, V domains shown)
VH: B1 VH
VL: B1 VL
B17: pomolog hcD55A (POM1 scFv, heavy chain D55A) (scFv, V domains shown)
VH: B1 VH with D55A, A104Y
VL: B1 VL
B18: pomolog lcS91A (POM1 scFv, light chain S91A) (scFv, V domains shown)
VH: B1 VH with A104Y
VL: B1 VL with S91A
B19: pomolog hcY101A (POM1 scFv, heavy chain Y101A) (scFv, V domains shown)
VH: B1 VH with Y101A, A104Y
VL: B1 VL
B20: pomolog lcY96A (POM1 scFv, light chain Y96A) (scFv, V domains shown)
VH: B1 VH with A104Y
VL: B1 VL with Y96A
B21: pomolog hcD52A (POM1 scFv, heavy chain D52A) (scFv, V domains shown)
VH: B1 VH with D52A, A104Y
VL: B1 VL

Target: recombinant mouse PrP flexible tail fragment (rmPrP23-110) (Mus musculus, UniProt P04925)
Assay: ELISA
Conditions: both partners purified

Row | Binder | binding result
1 | B1 | no binding

Target: globular domain fragment of recombinant human PrP (rhPrP121-230) (Homo sapiens, UniProt P04156)
Assay: ELISA
Conditions: both partners purified

Row | Binder | binding result
2 | B1 | binds

Target: mPrP immobilized on the SPR sensor chip (rmPrP) (Mus musculus, UniProt P04925)
Assay: SPR
Conditions: both partners purified

Row | Binder | Kd
3 | B2 | 1430 nM
4 | B3 | 9.98 nM
5 | B4 | 123 nM
6 | B5 | 103 nM
7 | B6 | 372 nM
8 | B7 | 406 nM
9 | B8 | 313 nM
10 | B9 | 201 nM
11 | B10 | 8.79 nM
12 | B11 | 11.5 nM

Target: full-length, recombinant mouse prion protein (rmPrP23-231) (Mus musculus, UniProt P04925)
Assay: FRET or BRET
Conditions: both partners purified

Row | Binder | Kd
13 | B2 | 92.3 nM
14 | B3 | 7.3 nM
15 | B4 | 138 nM
16 | B5 | 14.2 nM
17 | B6 | 110 nM
18 | B7 | 225 nM
19 | B8 | 63.4 nM
20 | B9 | 73.1 nM
21 | B10 | 26 nM
22 | B11 | 1.5 nM

Target: recombinant mouse prion protein immobilised for SPR (mPrP) (Mus musculus, UniProt P04925)
Assay: SPR
Conditions: both partners purified

Row | Binder | Kd | koff | kon
23 | B12 | 406 nM | 0.031 s⁻¹ | 77000 M⁻¹ s⁻¹
24 | B13 | 10 nM | 0.00059 s⁻¹ | 64000 M⁻¹ s⁻¹
25 | B14 | 313 nM | 0.0082 s⁻¹ | 57000 M⁻¹ s⁻¹
26 | B15 | 201 nM | 0.027 s⁻¹ | 310000 M⁻¹ s⁻¹
27 | B16 | 8.8 nM | 0.00021 s⁻¹ | 36000 M⁻¹ s⁻¹
28 | B17 | 372 nM | 0.037 s⁻¹ | 100000 M⁻¹ s⁻¹
29 | B18 | 1430 nM | 0.018 s⁻¹ | 13000 M⁻¹ s⁻¹
30 | B19 | 11 nM | 0.00071 s⁻¹ | 63000 M⁻¹ s⁻¹
31 | B20 | 123 nM | 0.0074 s⁻¹ | 62000 M⁻¹ s⁻¹
32 | B21 | 103 nM | 0.046 s⁻¹ | 330000 M⁻¹ s⁻¹
